From patent publication US20230149558A1, “DUOCARMYCIN DERIVATIVE AND USE THEREOF” (The University of Tokyo, priority 2020, published 2023)
One block for each molecule: values may come before it.

Columns and labels:
[1] = system: CEACAM5-negative DLD1 cells; assay: In vitro cytotoxicity test using CEA-V2122 and anticancer agent-labeled modified biotin (Cell Counting Kit-8); type: cell-based, human; details: complex of CEA-V2122 and Compound 5, molar ratio 1:2; 1.0E-11 to 6.0E-07 final molar concentration; 48 hours; FIG. 8
Method: (§1) A cytotoxicity test was carried out using an anticancer agent-labeled modified biotin. The anticancer agent-labeled modified biotin is a compound described as Compound 5. For the assay, first, CEACAM5-positive MKN45 cells and CEACAM5-negative DLD1 cells were seeded on a 96-well plate for cell culture, so that the cell count became 5×10^3 cells/well and the amount of the culture solution became 50 μL/well, and thereafter, the cells were cultured overnight. A solution containing a complex of CEA-V2122 and a […] modified biotin was prepared by mixing CEA-V2122 and Compound 5 to a molar ratio of 1:2, and then incubating the mixture at room temperature for 10 minutes. […]
(§2) To the cells that had been cultured overnight, the complex serial dilution solutions were added in an amount of 50 μL/well to each well of the plate to the final molar concentration (1.0E-11, 3.0E-11, 9.1E-11, 2.7E-10, 8.2E-10, 2.5E-09, 7.4E-09, 2.2E-08, 6.7E-08, 2.0E-07, and 6.0E-07). […] The dosage and administration were determined by the instruction manuals included with the kit, and after the addition of the reagent, the mixture was incubated for 1.5 hours at 37° C. in a CO2 incubator. Thereafter, the absorbance at 450 nm was measured, and a mean value was then calculated, followed by background collection. […]

[2] = system: CEACAM5-positive MKN45 cells; assay: as above; type: cell-based, human; details: complex of CEA-V2122 and Compound 5, molar ratio 1:2; 1.0E-11 to 6.0E-07 final molar concentration; 48 hours; FIG. 8
Method: as §1, §2

[3] = target: T1, Recombinant Human CEACAM-5/CD66e Protein, CF (R & D SYSTEMS) (human, UniProt P06731 35-685); assay: SPR, Biacore T200; CEACAM5 immobilized on CM5 chip, CEA-V2122 as analyte; single-cycle kinetics, bivalent analysis fit, KD=kd1/ka1
T1 construct: Bought recombinant protein, immobilized on a CM5 chip by amine coupling (279 RU); also called antigen CEACAM5
T1 sequence (looked up): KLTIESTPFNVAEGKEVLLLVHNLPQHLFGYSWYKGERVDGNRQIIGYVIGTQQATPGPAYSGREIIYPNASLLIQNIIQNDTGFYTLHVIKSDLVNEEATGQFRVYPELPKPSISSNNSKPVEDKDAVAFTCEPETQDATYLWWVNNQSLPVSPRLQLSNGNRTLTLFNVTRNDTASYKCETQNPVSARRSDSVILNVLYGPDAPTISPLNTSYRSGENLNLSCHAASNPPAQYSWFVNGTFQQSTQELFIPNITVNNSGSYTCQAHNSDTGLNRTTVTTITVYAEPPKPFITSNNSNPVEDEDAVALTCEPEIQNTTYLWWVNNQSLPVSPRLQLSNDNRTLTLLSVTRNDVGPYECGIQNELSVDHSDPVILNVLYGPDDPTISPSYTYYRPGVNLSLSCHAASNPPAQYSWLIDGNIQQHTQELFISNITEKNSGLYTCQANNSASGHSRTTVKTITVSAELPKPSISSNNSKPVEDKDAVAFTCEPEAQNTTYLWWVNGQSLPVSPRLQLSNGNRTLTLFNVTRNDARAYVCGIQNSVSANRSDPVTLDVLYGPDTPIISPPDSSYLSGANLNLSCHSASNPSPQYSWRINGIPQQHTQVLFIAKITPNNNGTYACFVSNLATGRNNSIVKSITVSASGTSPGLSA
Method: (§3) The affinity of CEA-V2122 for the antigen CEACAM5 was evaluated using a surface plasmon resonance (SPR) measuring device, Biacore T200 (GE Healthcare Life Sciences). Specifically, Recombinant Human CEACAM-5/CD66e Protein, CF (R & D SYSTEMS) was immobilized on Sensor Chip CM5 (GE Healthcare Life Sciences) using an amine-coupling kit (GE Healthcare Lite Sciences). The final amount of the ligand immobilized was 279 RU. Moreover, about the purified CEA-V2122, two-fold serial dilutions from 1E-08 to 6.25E-10 M were prepared as analytes. Regarding interaction analysis, data were obtained by single-cycle kinetics analysis.

CEACAM5 = target: T2, CEACAM5 (Homo sapiens, UniProt P06731); assay: Cell staining of CEACAM5-expressing cell line using FITC-labeled CEA-V2122; type: cell-based
T2 construct: endogenous in cells; host or cells: MKN-45 (CEACAM5-positive); DLD1 (CEACAM5-negative control)
T2 sequence (P06731 35-685 limits assumed): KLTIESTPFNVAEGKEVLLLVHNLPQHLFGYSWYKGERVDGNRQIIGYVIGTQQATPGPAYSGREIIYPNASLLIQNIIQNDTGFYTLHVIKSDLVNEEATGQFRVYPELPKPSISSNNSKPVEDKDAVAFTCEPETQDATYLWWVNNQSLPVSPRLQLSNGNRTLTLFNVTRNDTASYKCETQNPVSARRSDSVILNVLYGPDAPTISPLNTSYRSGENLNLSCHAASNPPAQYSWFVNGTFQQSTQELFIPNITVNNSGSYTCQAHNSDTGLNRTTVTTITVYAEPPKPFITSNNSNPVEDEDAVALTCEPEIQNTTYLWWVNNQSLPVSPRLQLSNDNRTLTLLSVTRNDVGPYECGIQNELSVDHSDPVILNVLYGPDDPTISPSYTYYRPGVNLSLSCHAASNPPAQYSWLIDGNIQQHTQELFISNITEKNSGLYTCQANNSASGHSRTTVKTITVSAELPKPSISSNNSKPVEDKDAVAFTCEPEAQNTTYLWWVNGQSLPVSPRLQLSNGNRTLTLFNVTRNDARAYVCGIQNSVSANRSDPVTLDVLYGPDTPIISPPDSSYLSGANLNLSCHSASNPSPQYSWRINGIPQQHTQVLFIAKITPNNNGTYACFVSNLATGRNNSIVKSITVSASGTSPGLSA
Method: In order to stain a CEACAM5 expression-positive cancer cell line, FITC labeling was carried out on the cell line, using 100 μg of a purified CEA-V2122 protein. Specifically, labeling was carried out using Fluorescein Labeling Kit—NH2 (DOJINDO LABORATORIES) in accordance with the dosage and administration described in the operating manual included with the kit, and the obtained product was defined to be CEA-V2122-FITC. Specific staining of the CEACAM5 expression-positive cancer cell line is as follows. That is, CEACAM5-positive human stomach cancer-derived MKN-45 cells and CEACAM5-negative human colon cancer-derived DLD1 cells were each seeded on a CELLSTAR, μClear, 96-well plate (Greiner) to a cell density of 2.0×10^4 cells/well, and thereafter, the cells were cultured overnight. Subsequently, a culture solution containing 20 nM CEA-V2122-FITC and 1 μM Hoechist was added to the 96-well plate to a concentration of 100 μL/well, and the obtained mixture was then reacted at 4° C. for 30 minutes. Thereafter, each image was taken using In Cell Analyzer 6000 (GE Healthcare Life Sciences).

[4] = target: T3, Recombinant Human CEACAM-5/CD66e Protein (Homo sapiens, UniProt P06731); assay: SPR (Biacore T200) affinity of CEA-V2122 for the antigen CEACAM5; type: binding
T3 construct: purchased R & D SYSTEMS
T3 sequence (P06731 35-676): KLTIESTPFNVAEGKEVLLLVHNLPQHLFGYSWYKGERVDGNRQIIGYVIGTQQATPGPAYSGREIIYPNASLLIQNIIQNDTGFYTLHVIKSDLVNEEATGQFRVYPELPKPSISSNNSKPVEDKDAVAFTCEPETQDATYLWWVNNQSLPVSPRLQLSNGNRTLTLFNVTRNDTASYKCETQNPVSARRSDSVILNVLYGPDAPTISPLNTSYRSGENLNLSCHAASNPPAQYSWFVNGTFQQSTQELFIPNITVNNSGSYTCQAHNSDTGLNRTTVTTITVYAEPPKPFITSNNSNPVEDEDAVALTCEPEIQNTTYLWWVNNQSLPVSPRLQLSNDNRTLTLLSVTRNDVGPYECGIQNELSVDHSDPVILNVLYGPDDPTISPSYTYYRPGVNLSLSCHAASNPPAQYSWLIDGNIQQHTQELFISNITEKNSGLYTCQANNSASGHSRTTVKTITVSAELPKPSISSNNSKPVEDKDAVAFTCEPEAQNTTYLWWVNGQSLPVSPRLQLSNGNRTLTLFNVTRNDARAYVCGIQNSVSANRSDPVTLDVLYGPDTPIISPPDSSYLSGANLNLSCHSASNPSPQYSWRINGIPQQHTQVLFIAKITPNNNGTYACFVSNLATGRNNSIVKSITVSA
Method: as §3, with “analysis. Using Biacore T200 Evaluation Software, version 2.0, the obtained data were subjected to curve fitting in a bivalent analysis mode, and the following values were obtained: ka1−3.208E+5, and kd1=3.461E-7.” for “analysis.”

[5] = CEACAM5 immobilized on Sensor Chip CM5 (279 RU), single-cycle kinetics, bivalent analysis mode

Molecule: COC(=O)c1cc2c([nH]1)C(=O)C=C1N(C(=O)c3cc4cc(OC)c(OCCNC(=O)[C@@H](NC(=O)[C@H](C)NC(=O)OCCOCCOCCn5cc(CCC(=O)NCCOCCOCCN(CC(=O)NCCCCNC(=O)CCCC[C@@H]6SC[C@@H]7NC(=N)N[C@@H]76)CC(=O)NCCCCNC(=O)CCCC[C@@H]6SC[C@@H]7NC(=N)N[C@@H]76)nn5)C(C)C)c(OC)c4[nH]3)C[C@H]3CC123 (some centres unmarked) [Compound 5]
cell growth ratio to control [1]: such a concentration-dependent effect of suppressing the cell growth of the CEACAM5-negative DLD1 cells was not confirmed
cell growth ratio to control [2]: suppression of the cell growth of the CEACAM5-positive MKN45 cells was confirmed in a complex concentration-dependent manner

B2: CEA-V2122-FITC: purified CEA-V2122 protein labeled using Fluorescein Labeling Kit—NH2 (protein)
chain: QVKLEQSGAEVVKPGASVKLSCKASGFNIKDSYMHWLRQGPGQRLEWIGWIDPENGDTEYAPKFQGKATFTTDTSANTAYLGLSSLRPEDTAVYYCNEGTPTGPYYFDYWGQGTLVTVSSGGGGSGGGGSGGGGSENVLTQSPSSMSVSVGDRVNIACSASSSVPYMHWLQQKPGKSPKLLIYLTSNLASGVPSRFSGSGSGTDYSLTISSVQPEDAATYYCQQRSSYPLTFGGGTKLEIKGGGGSGGGGAEAGITGTWSDQLGDTFIVTAGADGALTGTYENAVGGAESRYVLTGRYDSAPATDGSGTALGWTVAWKNNSKNAHSATTWSGQYVGGADAKINTQWLLTSGTTNANAWKSTLVGHDTFTKVKPSAASHHHHHH
stained cell images (recognition of CEACAM5) (CEACAM5; 20 nM CEA-V2122-FITC, 4° C. for 30 minutes, CEACAM5-positive MKN-45 vs CEACAM5-negative DLD1 cells, FIG. 5): specifically recognizes CEACAM5 on the surface of the cell membrane
time-series stained MKN45 cell images (localisation after binding) (CEACAM5; MKN45 cells, time-series data, FIG. 6): the CEACAM5 stays on the surface of the cell membrane

The remaining lines, values ahead:

Kd [3]: 1.08 pM
B1: CEA-V2122 (scFv)
chain: QVKLEQSGAEVVKPGASVKLSCKASGFNIKDSYMHWLRQGPGQRLEWIGWIDPENGDTEYAPKFQGKATFTTDTSANTAYLGLSSLRPEDTAVYYCNEGTPTGPYYFDYWGQGTLVTVSSGGGGSGGGGSGGGGSENVLTQSPSSMSVSVGDRVNIACSASSSVPYMHWLQQKPGKSPKLLIYLTSNLASGVPSRFSGSGSGTDYSLTISSVQPEDAATYYCQQRSSYPLTFGGGTKLEIKGGGGSGGGGAEAGITGTWSDQLGDTFIVTAGADGALTGTYENAVGGAESRYVLTGRYDSAPATDGSGTALGWTVAWKNNSKNAHSATTWSGQYVGGADAKINTQWLLTSGTTNANAWKSTLVGHDTFTKVKPSAASHHHHHH
notes: Fusion of an anti-CEACAM5 scFv with the mutant streptavidin V2122; also called scFv-V2122; CEA-V2122 fusion protein

ka1 [4, 5]: 3.208E+5
kd1 [4, 5]: 3.461E-7
KD=kd1/ka1 ([4]; bivalent analysis, KD=kd1/ka1): 1.078E−12
B3: CEA-V2122: scFv-type anti-CEACAM5 antibody bound with mutant streptavidin V2122 via an amino acid linker (GGGGSGGGG), SEQ ID NO: 3 (protein)
chain: QVKLEQSGAEVVKPGASVKLSCKASGFNIKDSYMHWLRQGPGQRLEWIGWIDPENGDTEYAPKFQGKATFTTDTSANTAYLGLSSLRPEDTAVYYCNEGTPTGPYYFDYWGQGTLVTVSSGGGGSGGGGSGGGGSENVLTQSPSSMSVSVGDRVNIACSASSSVPYMHWLQQKPGKSPKLLIYLTSNLASGVPSRFSGSGSGTDYSLTISSVQPEDAATYYCQQRSSYPLTFGGGTKLEIKGGGGSGGGGAEAGITGTWSDQLGDTFIVTAGADGALTGTYENAVGGAESRYVLTGRYDSAPATDGSGTALGWTVAWKNNSKNAHSATTWSGQYVGGADAKINTQWLLTSGTTNANAWKSTLVGHDTFTKVKPSAASHHHHHH
